Laboratory results as given in US20240390433A1, “GENETICALLY MODIFIED BACILLUS SUBTILIS STRAIN AND USE AS A LIVE DELIVERY AND […]” (BiomEdit, LLC, priority 2021, published 2024).
Several values for one entry are separate records, joined by “and”; a condition that tells them apart may be missing. Equal entries are not always repeated. Entries after “also recorded” stand apart in the source; their conditions may differ.

Assays:
[1] = tested on: Clostridium perfringens alpha toxin; assay type: biochemical
[2] = biological target: recombinant NetB (wild type NetB), Clostridium perfringens (Clostridium perfringens); experiment: cell-based or functional assay

B1: EAT-1G4 (protein, listed as Camelus sp.)
VHH: EVQLVESGGGLVQPGGSLRLSCAASGSIATINDMGWFRQAPGKQRDWVATIVSDGSTAYADSVKGRFTISRDNAKNTVYLQMNSLKPEDTAVYYCSARRHYGQGTQVTVSSAAASGSLEQKLISEEDLNGAAHHHHHHGAA
modifications: REGION 1..141: note = Description of sequence: EAT-1G4 antibody
With B1 the lecithinase activity neutralized [1] was 100% and the “neutralization of alpha toxin lecithinase activity (in words)” value [1] was “less capable of neutralizing”.

B2: VHH antibody ENB-1D11 (VHH)
VHH: EVQLVESGGGLVQTGGSLRLSCTASGTIDMTYGLIWYRQAPGKERELVASIRRDGRTNYADSVKGRFTISIDNAKNSIHLQMNSLKPDDTARYYCNSPYHALWGQGTQVTVSS
In the case of B2, the lowest VHH concentration neutralizing NetB haemolysis [2] is reported as 1.25 µM and 0.625 µM.

B3: EAT-1F2 (protein, listed as Camelus sp.)
VHH: EVQLVESGGGLVQAGGSLRLSCAGSGRTGSLYSMGWFRQAPGKEREFVAAITWRPSSTYYADSVKGRFTISRDDAKNTVYLQMNSLKPEDTAVYFCAARPRGGLSPTPQAYDYWGQGTQVTVSSAAASGSLEQKLISEEDLNGAAHHHHHHGAA
modifications: REGION 1..154: note = Description of sequence: EAT-1F2 antibody
B3 was tested, and the “neutralization of alpha toxin lecithinase activity (in words)” value [1] was “high neutralizing capacity; also recorded: unable to completely neutralize” and the residual lecithinase activity [1] was “about 25%”.

B4: VHH antibody ENB-1A4 (VHH)
VHH: EVQLVESGGGLVQAGGSLRLSCAASGSIFSTNVMGWYRQAPGKQREFVAGITIGGTARYPDSVKGRFTISRDNTQNTVYLQMNNLKPEDTAVYYCNAVLPSDQRRWSWGQGTQVTVSS
For B4, the lowest VHH concentration neutralizing NetB haemolysis [2] was 1.25 µM and 0.625 µM.
